Data published in the Immune Epitope Database (IEDB).

Tests used:
HLA-B*40:01 [1] = test: IEDB peptide-MHC binding, purified MHC/competitive/radioactivity; filed as Kd, often an IC50 or EC50 that approximates it; ≥ and ≤ were set here for values at or beyond the usual limits of such assays
HLA-B*44:02 = test: as above
HLA-B*35:01 = test: as above
HLA-B*51:01 [2] = test: as above
HLA-A*30:01 = test: as above
HLA-A*30:02 = test: as above
HLA-B*18:01 = test: IEDB peptide-MHC binding, purified MHC/direct/fluorescence; filed as Kd, often an IC50 or EC50 that approximates it; ≥ and ≤ were set here for values at or beyond the usual limits of such assays
HLA-B*40:01 [3] = test: as above
HLA-B*44:03 = test: IEDB peptide-MHC binding, purified MHC/competitive/radioactivity; filed as Kd, often an IC50 or EC50 that approximates it; ≥ and ≤ were set here for values at or beyond the usual limits of such assays
HLA-B*15:01 = test: as above
HLA-A*32:01 = test: as above
HLA-B*53:01 = test: as above
HLA-A*24:03 = test: IEDB peptide-MHC binding, purified MHC/direct/fluorescence; filed as Kd, often an IC50 or EC50 that approximates it; ≥ and ≤ were set here for values at or beyond the usual limits of such assays
HLA-B*07:02 = test: IEDB peptide-MHC binding, purified MHC/competitive/radioactivity; filed as Kd, often an IC50 or EC50 that approximates it; ≥ and ≤ were set here for values at or beyond the usual limits of such assays
HLA-B*46:01 = test: IEDB peptide-MHC binding, purified MHC/direct/fluorescence; filed as Kd, often an IC50 or EC50 that approximates it; ≥ and ≤ were set here for values at or beyond the usual limits of such assays
HLA-A*03:01 = test: IEDB peptide-MHC binding, purified MHC/competitive/radioactivity; filed as Kd, often an IC50 or EC50 that approximates it; ≥ and ≤ were set here for values at or beyond the usual limits of such assays; conditions: source organism: Mammarenavirus brazilense
HLA-A*31:01 = test: as above; conditions: source organism: Mammarenavirus brazilense
HLA-A*33:01 = test: as above; conditions: source organism: Mammarenavirus brazilense
HLA-A*68:01 = test: as above; conditions: source organism: Mammarenavirus brazilense
HLA-A*23:01 = test: as above
HLA-A*24:02 = test: as above
HLA-A*01:01 = test: as above; conditions: source organism: Mammarenavirus machupoense
HLA-A*26:01 = test: as above; conditions: source organism: Mammarenavirus machupoense
HLA-A*29:02 = test: as above; conditions: source organism: Mammarenavirus machupoense
HLA-B*51:01 [4] = test: IEDB peptide-MHC binding, purified MHC/competitive/fluorescence; filed as Kd, often an IC50 or EC50 that approximates it; ≥ and ≤ were set here for values at or beyond the usual limits of such assays; conditions: source organism: Escherichia coli K-12
[5] = source organism: Dengue virus 4 Philippines/H241/1956
[6] = source organism: Dengue virus 3 Martinique/1243/1999
[7] = source organism: Dengue virus 1 Brazil/97-11/1997
[8] = source organism: Mammarenavirus lassaense
[9] = source organism: Dengue virus 2 Jamaica/1409/1983
[10] = source organism: Dengue virus 4 Dominica/814669/1981
[11] = source organism: Dengue virus 3 Sri Lanka/1266/2000
[12] = source organism: Vaccinia virus WR
[13] = source organism: Francisella tularensis subsp. holarctica LVS
[14] = source organism: Mammarenavirus machupoense

LETLMLVAL
Kd (HLA-B*40:01 [1]; [5]): 3.49 nM
Kd (HLA-B*44:02; [5]): 1100 nM

LPVWLAHKVA
Kd (HLA-B*35:01; [6]): 6680 nM

LRHPGFTVI
Kd (HLA-B*51:01 [2]; [7]): ≥ 10000 nM

MATFKMRPMF
Kd (HLA-A*30:01; [7]): 1790 nM

MAVFKMSPGY
Kd (HLA-A*30:02; [5]): 501 nM
Kd (HLA-B*35:01; [5]): 667 nM

MEGLKLLSL
Kd (HLA-B*18:01; [8]): 222 nM
Kd (HLA-B*40:01 [3]; [8]): 160 nM

MEKASFIEV
Kd (HLA-B*40:01 [1]; [9]): 1210 nM
Kd (HLA-B*44:02; [9]): 320 nM

MELIDGISL
Kd (HLA-B*40:01 [1]; [10]): 2.29 nM
Kd (HLA-B*44:02; [10]): 375 nM
Kd (HLA-B*44:03; [10]): 226 nM

MERFNCSSF
Kd (HLA-B*15:01; source organism: Vaccinia virus Copenhagen): 1.62 nM

MILPAALAF
Kd (HLA-A*32:01; [11]): 29.5 nM
Kd (HLA-B*15:01; [11]): 6.87 nM
Kd (HLA-B*35:01; [11]): 394 nM

MTRDPLYIY
Kd (HLA-A*30:01; [12]): 16.9 nM

PPFGDSYII
Kd (HLA-B*51:01 [2]; [9]): 9780 nM
Kd (HLA-B*53:01; [9]): 1740 nM

RAKRGTAQI
Kd (HLA-A*30:01; [7]): 137 nM

REIPERSWNT
Kd (HLA-B*40:01 [1]; [5]): 1480 nM

RGRIGRNPK
Kd (HLA-A*30:01; [9]): 18.7 nM

RIIPKNNHA
Kd (HLA-B*15:01; [12]): 444 nM

RIKQQGIFG
Kd (HLA-A*30:01; [6]): 19.9 nM

RLKGESRKTF
Kd (HLA-B*15:01; [6]): 300 nM

RMAILGDTAW
Kd (HLA-B*15:01; [9]): 233 nM
Kd (HLA-B*44:02; [9]): 451 nM
Kd (HLA-B*53:01; [9]): 21.4 nM

RQEKGKSLLF
Kd (HLA-B*15:01; [9]): 42.3 nM

RQRTPQDNQL
Kd (HLA-B*15:01; [7]): 112 nM

RTKDTRIKA
Kd (HLA-A*30:01; [12]): 0.196 nM

RYPIDPFLL
Kd (HLA-A*24:03; [8]): 5.6 nM

SEIRWEESF
Kd (HLA-B*15:01; [12]): 46.9 nM

SENEVKLTI
Kd (HLA-B*40:01 [1]; [9]): 373 nM
Kd (HLA-B*44:02; [9]): 0.814 nM
Kd (HLA-B*44:03; [9]): 14.1 nM

SLVMLLVHY
Kd (HLA-A*30:02; [5]): 1600 nM
Kd (HLA-B*15:01; [5]): 419 nM

SPAATQKAAL
Kd (HLA-B*07:02; source organism: Dengue virus 4 Singapore/8976/1995): 3.66 nM

SPGYVLGIFL
Kd (HLA-B*07:02; [5]): 116 nM

SPKRLATAIA
Kd (HLA-B*07:02; [6]): 34.1 nM

SQEAEFTGY
Kd (HLA-B*46:01; source organism: Yellow fever virus): ≥ 20000 nM

SQHNHRPGY
Kd (HLA-A*30:02; [6]): 28.7 nM
Kd (HLA-B*15:01; [6]): 91.2 nM

STYYVHENK
Kd (HLA-A*03:01): 5.16 nM
Kd (HLA-A*30:01; source organism: Mammarenavirus brazilense): 3320 nM
Kd (HLA-A*31:01): 57.3 nM
Kd (HLA-A*33:01): 454 nM
Kd (HLA-A*68:01): 13 nM

TPNLAERVL
Kd (HLA-B*07:02; source organism: Dengue virus 1 Singapore/S275/1990): 114 nM

TPQDNQLTYV
Kd (HLA-B*07:02; [9]): 1330 nM
Kd (HLA-B*51:01 [2]; [9]): 16400 nM

TPRGAVMDII
Kd (HLA-B*07:02; [10]): 8.05 nM
Kd (HLA-B*51:01 [2]; [10]): 1350 nM

TPRSPSVEV
Kd (HLA-B*07:02; [5]): 2.58 nM
Kd (HLA-B*51:01 [2]; [5]): 538 nM

TTTDSRCPTQ
Kd (HLA-A*30:01; [7]): ≥ 51200 nM

VEDERFWDL
Kd (HLA-B*40:01 [1]; [7]): 155 nM

VEIGLGMPF
Kd (HLA-B*18:01; [13]): ≤ 1 nM
Kd (HLA-B*40:01 [3]; [13]): 16.8 nM

VTNIELEPPF
Kd (HLA-A*30:01; [5]): 468 nM

WENNIKLTVV
Kd (HLA-B*40:01 [1]; [6]): 443 nM

YAQMWSLMYF
Kd (HLA-A*23:01; [6]): 594 nM
Kd (HLA-A*24:02; [6]): 247 nM
Kd (HLA-B*15:01; [6]): 9.91 nM
Kd (HLA-B*51:01 [2]; [6]): 12900 nM
Kd (HLA-B*53:01; [6]): 106 nM

YFHAELNYL
Kd (HLA-A*24:03; source organism: Vibrio vulnificus): 3.7 nM

YKELCDAVY
Kd (HLA-A*01:01): 4060 nM
Kd (HLA-A*23:01; [14]): ≥ 40500 nM
Kd (HLA-A*24:02; [14]): ≥ 77500 nM
Kd (HLA-A*26:01): ≥ 77900 nM
Kd (HLA-A*29:02): 3200 nM
Kd (HLA-A*30:01; [14]): ≥ 54300 nM
Kd (HLA-A*30:02; [14]): 1420 nM
Kd (HLA-A*32:01; [14]): ≥ 77800 nM

YNNFYFYSF
Kd (HLA-B*15:01; [12]): 1460 nM

YPYSDDLTI
Kd (HLA-B*51:01 [4]): 281 nM

YQPEREKVY
Kd (HLA-B*46:01; source organism: West Nile virus): ≥ 20000 nM
